Assay results published in article PMC10540216, “Activity Guided Azide-methyllysine Photo-trapping for Substrate Profiling of Lysine Demethylases” (Journal of the American Chemical Society, 2023).

System: KDM4A-I71AzF
Test: CASI: photo-crosslinking with HEK293T cell extracts, StrepTactin enrichment and LC-MS/MS proteomics;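 also: lysates from HEK293T cells pretreated with a KDM4 inhibitor to raise proteome methylation, affinity-purified after ±UV, gel-resolved, trypsin-digested, with exclusive unique peptides per protein averaged per condition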
Format: binding, human
Settings: sheet "Final results but with 0.01"

Molecule | Fold change (+UV/-UV)
DDX42_HUMAN (protein, UniProt Q86XP3 1-938, looked up) ATP-dependent RNA helicase …: MNWNKGGPGTKRGFGFGGFAISAGKKEEPKLPQQSHSAFGATSSSSGFGKSAPPQLPSFYKIGSKRANFDEENAYFEDEEEDSSNVDLPYIPAENSPTRQQFHSKPVDSDSDDDPLEAFMAEVEDQAARDMKRLEEKDKERKNVKGIRDDIEEEDDQEAYFRYMAENPTAGVVQEEEEDNLEYDSDGNPIAPTKKIIDPLPPIDHSEIDYPPFEKNFYNEHEEITNLTPQQLIDLRHKLNLRVSGAAPPRPGSSFAHFGFDEQLMHQIRKSEYTQPTPIQCQGVPVALSGRDMIGIAKTGSGKTAAFIWPMLIHIMDQKELEPGDGPIAVIVCPTRELCQQIHAECKRFGKAYNLRSVAVYGGGSMWEQAKALQEGAEIVVCTPGRLIDHVKKKATNLQRVSYLVFDEADRMFDMGFEYQVRSIASHVRPDRQTLLFSATFRKKIEKLARDILIDPIRVVQGDIGEANEDVTQIVEILHSGPSKWNWLTRRLVEFTSSGSVLLFVTKKANAEELANNLKQEGHNLGLLHGDMDQSERNKVISDFKKKDIPVLVATDVAARGLDIPSIKTVINYDVARDIDTHTHRIGRTGRAGEKGVAYTLLTPKDSNFAGDLVRNLEGANQHVSKELLDLAMQNAWFRKSRFKGGKGKKLNIGGGGLGYRERPGLGSENMDRGNNNVMSNYEAYKPSTGAMGDRLTAMKAAFQSQYKSHFVAASLSNQKAGSSAAGASGWTSAGSLNSVPTNSAQQGHNSPDSPVTSAAKGIPGFGNTGNISGAPVTYPSAGAQGVNNTASGNNSREGTGGSNGKRERYTENRGSSRHSHGETGNRHSDSPRHGDGGRHGDGYRHPESSSRHTDGHRHGENRHGGSAGRHGENRGANDGRNGESRKEAFNRESKMEPKMEPKVDSSKMDKVDSKTDKTADGFAVPEPPKRKKSRWDS | 0.6
CYFP1_HUMAN (protein, UniProt Q7L576 1-1253, looked up) Cytoplasmic FMR1-interacting …: MAAQVTLEDALSNVDLLEELPLPDQQPCIEPPPSSLLYQPNFNTNFEDRNAFVTGIARYIEQATVHSSMNEMLEEGQEYAVMLYTWRSCSRAIPQVKCNEQPNRVEIYEKTVEVLEPEVTKLMNFMYFQRNAIERFCGEVRRLCHAERRKDFVSEAYLITLGKFINMFAVLDELKNMKCSVKNDHSAYKRAAQFLRKMADPQSIQESQNLSMFLANHNKITQSLQQQLEVISGYEELLADIVNLCVDYYENRMYLTPSEKHMLLKVMGFGLYLMDGSVSNIYKLDAKKRINLSKIDKYFKQLQVVPLFGDMQIELARYIKTSAHYEENKSRWTCTSSGSSPQYNICEQMIQIREDHMRFISELARYSNSEVVTGSGRQEAQKTDAEYRKLFDLALQGLQLLSQWSAHVMEVYSWKLVHPTDKYSNKDCPDSAEEYERATRYNYTSEEKFALVEVIAMIKGLQVLMGRMESVFNHAIRHTVYAALQDFSQVTLREPLRQAIKKKKNVIQSVLQAIRKTVCDWETGHEPFNDPALRGEKDPKSGFDIKVPRRAVGPSSTQLYMVRTMLESLIADKSGSKKTLRSSLEGPTILDIEKFHRESFFYTHLINFSETLQQCCDLSQLWFREFFLELTMGRRIQFPIEMSMPWILTDHILETKEASMMEYVLYSLDLYNDSAHYALTRFNKQFLYDEIEAEVNLCFDQFVYKLADQIFAYYKVMAGSLLLDKRLRSECKNQGATIHLPPSNRYETLLKQRHVQLLGRSIDLNRLITQRVSAAMYKSLELAIGRFESEDLTSIVELDGLLEINRMTHKLLSRYLTLDGFDAMFREANHNVSAPYGRITLHVFWELNYDFLPNYCYNGSTNRFVRTVLPFSQEFQRDKQPNAQPQYLHGSKALNLAYSSIYGSYRNFVGPPHFQVICRLLGYQGIAVVMEELLKVVKSLLQGTILQYVKTLMEVMPKICRLPRHEYGSPGILEFFHHQLKDIVEYAELKTVCFQNLREVGNAILFCLLIEQSLSLEEVCDLLHAAPFQNILPRVHVKEGERLDAKMKRLESKYAPLHLVPLIERLGTPQQIAIAREGDLLTKERLCCGLSMFEVILTRIRSFLDDPIWRGPLPSNGVMHVDECVEFHRLWSAMQFVYCIPVGTHEFTVEQCFGDGLHWAGCMIIVLLGQQRRFAVLDFCYHLLKVQKHDGKDEIIKNVPLKKMVERIRKFQILNDEIITILDKYLKSGDGEGTPVEHVRCFQPPIHQSLASS | 0.6
HACD3_HUMAN (protein, UniProt Q9P035 1-362, looked up) Very-long-chain …: MENQVLTPHVYWAQRHRELYLRVELSDVQNPAISITENVLHFKAQGHGAKGDNVYEFHLEFLDLVKPEPVYKLTQRQVNITVQKKVSQWWERLTKQEKRPLFLAPDFDRWLDESDAEMELRAKEEERLNKLRLESEGSPETLTNLRKGYLFMYNLVQFLGFSWIFVNLTVRFCILGKESFYDTFHTVADMMYFCQMLAVVETINAAIGVTTSPVLPSLIQLLGRNFILFIIFGTMEEMQNKAVVFFVFYLWSAIEIFRYSFYMLTCIDMDWKVLTWLRYTLWIPLYPLGCLAEAVSVIQSIPIFNETGRFSFTLPYPVKIKVRFSFFLQIYLIMIFLGLYINFRHLYKQRRRRYGQKKKKIH | 0.6667
SF3A1_HUMAN (protein, UniProt Q15459 2-793, looked up) Splicing factor 3A subunit 1: PAGPVQAVPPPPPVPTEPKQPTEEEASSKEDSAPSKPVVGIIYPPPEVRNIVDKTASFVARNGPEFEARIRQNEINNPKFNFLNPNDPYHAYYRHKVSEFKEGKAQEPSAAIPKVMQQQQQTTQQQLPQKVQAQVIQETIVPKEPPPEFEFIADPPSISAFDLDVVKLTAQFVARNGRQFLTQLMQKEQRNYQFDFLRPQHSLFNYFTKLVEQYTKILIPPKGLFSKLKKEAENPREVLDQVCYRVEWAKFQERERKKEEEEKEKERVAYAQIDWHDFVVVETVDFQPNEQGNFPPPTTPEELGARILIQERYEKFGESEEVEMEVESDEEDDKQEKAEEPPSQLDQDTQVQDMDEGSDDEEEGQKVPPPPETPMPPPLPPTPDQVIVRKDYDPKASKPLPPAPAPDEYLVSPITGEKIPASKMQEHMRIGLLDPRWLEQRDRSIREKQSDDEVYAPGLDIESSLKQLAERRTDIFGVEETAIGKKIGEEEIQKPEEKVTWDGHSGSMARTQQAAQANITLQEQIEAIHKAKGLVPEDDTKEKIGPSKPNEIPQQPPPPSSATNIPSSAPPITSVPRPPTMPPPVRTTVVSAVPVMPRPPMASVVRLPPGSVIAPMPPIIHAPRINVVPMPPSAPPIMAPRPPPMIVPTAFVPAPPVAPVPAPAPMPPVHPPPPMEDEPTSKKLKTEDSLMPEEEFLRRNKGPVSIKVQVPNMQDKTEWKLNGQVLVFTLPLTDQVSVIKVKIHEATGMPAGKQKLQYEGIFIKDSNSLAYYNMANGAVIHLALKERGGRKK | 0
ROCK1_HUMAN (protein, UniProt Q13464 2-1354, looked up) Rho-associated protein kinase …: STGDSFETRFEKMDNLLRDPKSEVNSDCLLDGLDALVYDLDFPALRKNKNIDNFLSRYKDTINKIRDLRMKAEDYEVVKVIGRGAFGEVQLVRHKSTRKVYAMKLLSKFEMIKRSDSAFFWEERDIMAFANSPWVVQLFYAFQDDRYLYMVMEYMPGGDLVNLMSNYDVPEKWARFYTAEVVLALDAIHSMGFIHRDVKPDNMLLDKSGHLKLADFGTCMKMNKEGMVRCDTAVGTPDYISPEVLKSQGGDGYYGRECDWWSVGVFLYEMLVGDTPFYADSLVGTYSKIMNHKNSLTFPDDNDISKEAKNLICAFLTDREVRLGRNGVEEIKRHLFFKNDQWAWETLRDTVAPVVPDLSSDIDTSNFDDLEEDKGEEETFPIPKAFVGNQLPFVGFTYYSNRRYLSSANPNDNRTSSNADKSLQESLQKTIYKLEEQLHNEMQLKDEMEQKCRTSNIKLDKIMKELDEEGNQRRNLESTVSQIEKEKMLLQHRINEYQRKAEQENEKRRNVENEVSTLKDQLEDLKKVSQNSQLANEKLSQLQKQLEEANDLLRTESDTAVRLRKSHTEMSKSISQLESLNRELQERNRILENSKSQTDKDYYQLQAILEAERRDRGHDSEMIGDLQARITSLQEEVKHLKHNLEKVEGERKEAQDMLNHSEKEKNNLEIDLNYKLKSLQQRLEQEVNEHKVTKARLTDKHQSIEEAKSVAMCEMEKKLKEEREAREKAENRVVQIEKQCSMLDVDLKQSQQKLEHLTGNKERMEDEVKNLTLQLEQESNKRLLLQNELKTQAFEADNLKGLEKQMKQEINTLLEAKRLLEFELAQLTKQYRGNEGQMRELQDQLEAEQYFSTLYKTQVKELKEEIEEKNRENLKKIQELQNEKETLATQLDLAETKAESEQLARGLLEEQYFELTQESKKAASRNRQEITDKDHTVSRLEEANSMLTKDIEILRRENEELTEKMKKAEEEYKLEKEEEISNLKAAFEKNINTERTLKTQAVNKLAEIMNRKDFKIDRKKANTQDLRKKEKENRKLQLELNQEREKFNQMVVKHQKELNDMQAQLVEECAHRNELQMQLASKESDIEQLRAKLLDLSDSTSVASFPSADETDGNLPESRIEGWLSVPNRGNIKRYGWKKQYVVVSSKKILFYNDEQDKEQSNPSMVLDIDKLFHVRPVTQGDVYRAETEEIPKIFQILYANEGECRKDVEMEPVQQAEKTNFQNHKGHEFIPTLYHFPANCDACAKPLWHVFKPPPALECRRCHVKCHRDHLDKKEDLICPCKVSYDVTSARDMLLLACSQDEQKKWVTHLVKKIPKNPPSGFVRASPRTLSTRSTANQSFRKVVKNTSGKTS | 0
CBPD_HUMAN (protein, UniProt O75976 32-1380, looked up) Carboxypeptidase D: AHIKKAEATTTTTSAGAEAAEGQFDRYYHEEELESALREAAAAGLPGLARLFSIGRSVEGRPLWVLRLTAGLGSLIPEGDAGPDAAGPDAAGPLLPGRPQVKLVGNMHGDETVSRQVLIYLARELAAGYRRGDPRLVRLLNTTDVYLLPSLNPDGFERAREGDCGFGDGGPSGASGRDNSRGRDLNRSFPDQFSTGEPPALDEVPEVRALIEWIRRNKFVLSGNLHGGSVVASYPFDDSPEHKATGIYSKTSDDEVFKYLAKAYASNHPIMKTGEPHCPGDEDETFKDGITNGAHWYDVEGGMQDYNYVWANCFEITLELSCCKYPPASQLRQEWENNRESLITLIEKVHIGVKGFVKDSITGSGLENATISVAGINHNITTGRFGDFYRLLVPGTYNLTVVLTGYMPLTVTNVVVKEGPATEVDFSLRPTVTSVIPDTTEAVSTASTVAIPNILSGTSSSYQPIQPKDFHHHHFPDMEIFLRRFANEYPNITRLYSLGKSVESRELYVMEISDNPGVHEPGEPEFKYIGNMHGNEVVGRELLLNLIEYLCKNFGTDPEVTDLVHNTRIHLMPSMNPDGYEKSQEGDSISVIGRNNSNNFDLNRNFPDQFVQITDPTQPETIAVMSWMKSYPFVLSANLHGGSLVVNYPFDDDEQGLATYSKSPDDAVFQQIALSYSKENSQMFQGRPCKNMYPNEYFPHGITNGASWYNVPGGMQDWNYLQTNCFEVTIELGCVKYPLEKELPNFWEQNRRSLIQFMKQVHQGVRGFVLDATDGRGILNATISVAEINHPVTTYKTGDYWRLLVPGTYKITASARGYNPVTKNVTVKSEGAIQVNFTLVRSSTDSNNESKKGKGASSSTNDASDPTTKEFETLIKDLSAENGLESLMLRSSSNLALALYRYHSYKDLSEFLRGLVMNYPHITNLTNLGQSTEYRHIWSLEISNKPNVSEPEEPKIRFVAGIHGNAPVGTELLLALAEFLCLNYKKNPAVTQLVDRTRIVIVPSLNPDGRERAQEKDCTSKIGQTNARGKDLDTDFTNNASQPETKAIIENLIQKQDFSLSVALDGGSMLVTYPYDKPVQTVENKETLKHLASLYANNHPSMHMGQPSCPNKSDENIPGGVMRGAEWHSHLGSMKDYSVTYGHCPEITVYTSCCYFPSAARLPSLWADNKRSLLSMLVEVHKGVHGFVKDKTGKPISKAVIVLNEGIKVQTKEGGYFHVLLAPGVHNIIAIADGYQQQHSQVFVHHDAASSVVIVFDTDNRIFGLPRELVVTVSGATMSALILTACIIWCICSIKSNRHKDGFHRLRQHHDEYEDEIRMMSTGSKKSLLSHEFQDETDTEEETLYSSKH | 1
